From PMC8640741

Target: SARS-CoV-2 spike (S) protein in the postfusion state, in situ on the viral membrane (SARS-CoV-2)
Assay: cryo-EM structure

In the case of “SARS-CoV-2 spike (S) protein in the postfusion state, in situ on the viral membrane (natural protein)”, the stoichiometry N is reported as 3.
